Assay results reported in patent publication US20250296992A1 (Genmab, published 2025).

What was measured:
[1] = target: T1, human SLITRK1 (human, UniProt Q96PX8 18-622, limits assumed); experiment: BLI, antigen on anti-his tips
T1 construct: The method text describes only the SLITRK6 ECD-his construct; also called Hu SLITRK1
T1 sequence (looked up): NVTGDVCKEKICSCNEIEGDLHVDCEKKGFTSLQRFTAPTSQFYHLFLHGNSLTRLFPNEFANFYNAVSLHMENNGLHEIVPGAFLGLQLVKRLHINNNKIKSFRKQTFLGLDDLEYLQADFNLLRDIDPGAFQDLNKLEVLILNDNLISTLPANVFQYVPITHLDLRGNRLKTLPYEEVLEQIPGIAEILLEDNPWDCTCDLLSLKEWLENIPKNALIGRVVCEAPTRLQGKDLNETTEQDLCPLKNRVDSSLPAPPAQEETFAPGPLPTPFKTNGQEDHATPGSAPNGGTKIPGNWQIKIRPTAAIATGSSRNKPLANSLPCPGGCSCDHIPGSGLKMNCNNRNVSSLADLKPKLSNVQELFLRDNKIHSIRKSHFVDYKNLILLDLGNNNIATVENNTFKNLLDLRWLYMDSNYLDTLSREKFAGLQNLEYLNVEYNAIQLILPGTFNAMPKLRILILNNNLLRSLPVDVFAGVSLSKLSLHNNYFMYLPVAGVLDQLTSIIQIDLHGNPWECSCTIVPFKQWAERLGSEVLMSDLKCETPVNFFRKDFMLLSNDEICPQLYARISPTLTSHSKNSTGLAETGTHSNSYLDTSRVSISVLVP
Description: (§1) Binding kinetic of antibody-antigen was characterized by the bio-layer interferometry (BLI). 100 nM of SLITRK6′ extracellular domain linked to his tag was immobilized on anti-his biosensor tips (Fortebio). The sensors were rinsed with the buffer (50 mM Tris-AcOH, pH 6 or 7.5, 0.05% v/v surfactant P20) for 10 min to remove the unbound molecules, then dipped in the antibody solutions at different concentrations for 180 seconds and interspersed by a rinsing step in the buffer solution for 300 seconds. Binding affinity was calculated using ForteBio Data Acquisition 6.3 software (ForteBio) and was derived by fitting the kinetic data to a 1:1 Langmuir binding model utilizing global fitting algorithms. The dissociation or association equilibrium constant KD was calculated from the binding rate constants as KD=koff/kₒₙ (where koff and kₒₙ represent the dissociation kinetic constant and the association kinetic constant, respectively).

[2] = target: T2, human SLITRK4 (human, UniProt Q8IW52 19-618, limits assumed); experiment: BLI, antigen on anti-his tips
T2 construct: The method text describes only the SLITRK6 ECD-his construct; also called Hu SLITRK4
T2 sequence (looked up): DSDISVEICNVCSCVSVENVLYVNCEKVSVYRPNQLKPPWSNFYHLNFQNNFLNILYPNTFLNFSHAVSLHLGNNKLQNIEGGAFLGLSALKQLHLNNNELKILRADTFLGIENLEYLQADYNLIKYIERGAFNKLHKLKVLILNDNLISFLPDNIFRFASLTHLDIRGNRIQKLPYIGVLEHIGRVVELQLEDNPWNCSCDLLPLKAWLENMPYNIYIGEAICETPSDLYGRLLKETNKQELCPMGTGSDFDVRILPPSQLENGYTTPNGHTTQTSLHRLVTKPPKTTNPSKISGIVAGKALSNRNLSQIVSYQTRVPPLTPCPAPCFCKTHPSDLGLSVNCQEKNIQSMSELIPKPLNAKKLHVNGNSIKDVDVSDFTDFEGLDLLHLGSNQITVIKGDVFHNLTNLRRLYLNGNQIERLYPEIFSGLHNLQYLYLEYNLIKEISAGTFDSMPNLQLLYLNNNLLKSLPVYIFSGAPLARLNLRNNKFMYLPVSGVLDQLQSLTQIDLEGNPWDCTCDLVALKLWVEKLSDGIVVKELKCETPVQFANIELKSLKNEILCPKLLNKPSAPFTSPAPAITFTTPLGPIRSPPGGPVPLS
Description: as §1

[3] = target: T3, rat SLITRK6 (rat, UniProt D3ZP44 27-607); experiment: BLI, antigen on anti-his tips
T3 construct: extracellular domain; not shown: his tag

[4] = target: T4, human SLITRK6 on cells (human, UniProt Q9H5Y7 27-841); experiment: flow cytometry on RT4 cells, PE-conjugated anti-human Fc
T4 construct: whole, on cells
Description: (§2) Specifically, cells were incubated with 50 μL of mAbs or ADCs in series dilutions in PBS containing 1% BSA at 4° C. for 30 min. The cells were washed twice with PBS containing 1% BSA, stained with PE-conjugated anti human Fc in PBS containing 1% BSA and then incubated at 4° C. for 20 min. After that the cells were washed twice with PBS and analyzed by a flow cytometer.

[5] = target: T4, human SLITRK6 on cells; experiment: as above; remark: listed apart in the source
Description: (§3) The binding activity of mAbs and ADCs was evaluated by flow cytometer (Beckman, Cytoflex). Specifically, cells were incubated with 50 μL of mAbs or ADCs in series dilutions in PBS containing 1% BSA at 4° C. for 30 min. The cells were washed twice with PBS containing 1% BSA, stained with PE-conjugated anti human Fc in PBS containing 1% BSA and then incubated at 4° C. for 20 min. After that the cells were washed twice with PBS and analyzed by a flow cytometer.

[6] = target: T4, human SLITRK6 on cells; experiment: flow cytometry on SW780 cells, PE-conjugated anti-human Fc
Description: as §2

[7] = target: T4, human SLITRK6 on cells; experiment: as above; remark: listed apart in the source
Description: as §3

[8] = target: T4, human SLITRK6 on cells; experiment: flow cytometry on CHP-212 cells, PE-conjugated anti-human Fc
Description: as §2

[9] = target: T4, human SLITRK6 on cells; experiment: flow cytometry on KYSE-30 cells, PE-conjugated anti-human Fc
Description: as §2

[10] = target: T4, human SLITRK6 on cells; experiment: flow cytometry on RT112/84 cells, PE-conjugated anti-human Fc
Description: as §2

[11] = target: T4, human SLITRK6 on cells; experiment: flow cytometry on KYSE-410 cells, PE-conjugated anti-human Fc
Description: as §2

[12] = target: T5, mouse SLITRK6 (mouse, UniProt Q8C110 23-609); experiment: BLI; antigen-his on anti-his tips, antibody or ADC as analyte; 1:1 fit
T5 construct: extracellular domain; also called Mu SLITRK6; not shown: his tag
T5 sequence (Q8C110 23-609): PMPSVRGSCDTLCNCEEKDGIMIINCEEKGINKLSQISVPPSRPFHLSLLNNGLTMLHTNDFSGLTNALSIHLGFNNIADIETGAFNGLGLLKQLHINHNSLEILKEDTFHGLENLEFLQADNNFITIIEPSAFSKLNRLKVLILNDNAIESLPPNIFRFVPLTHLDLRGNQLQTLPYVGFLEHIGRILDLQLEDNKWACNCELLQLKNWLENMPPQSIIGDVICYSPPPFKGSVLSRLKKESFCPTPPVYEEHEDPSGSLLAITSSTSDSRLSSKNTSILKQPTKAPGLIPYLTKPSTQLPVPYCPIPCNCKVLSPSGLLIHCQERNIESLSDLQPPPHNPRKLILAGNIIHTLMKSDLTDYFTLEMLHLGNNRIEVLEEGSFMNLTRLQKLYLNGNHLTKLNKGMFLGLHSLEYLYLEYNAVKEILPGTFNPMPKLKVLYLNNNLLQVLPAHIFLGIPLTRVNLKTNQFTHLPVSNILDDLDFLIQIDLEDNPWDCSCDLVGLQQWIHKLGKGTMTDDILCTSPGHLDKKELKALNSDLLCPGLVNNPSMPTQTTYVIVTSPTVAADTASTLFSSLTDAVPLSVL

[13] = target: T6, human SLITRK6 extracellular domain linked to his tag (human, UniProt Q9H5Y7 27-608); experiment: as above
T6 construct: extracellular domain; also called huSLITRK6; Hu SLITRK6; not shown: his tag

[14] = target: T7, cynomolgus monkey SLITRK6 extracellular domain linked to his tag (cynomolgus monkey, UniProt G7PVK4 27-608); experiment: as above
T7 construct: extracellular domain; also called cynoSLITRK6; Cyno SLITRK6; not shown: his tag

[15] = target: T4, human SLITRK6 on cells; experiment: flow cytometry on 293F-huSLITRK6 cells, PE-conjugated anti-human Fc
Description: as §2

B1: hu1H2-03 with a LALA mutation (hu1H2-03-LALA) (antibody, V domains shown)
VH: EVQLVESGGGLVQPGGSLRLSCAASGFTFSDYGLHWVRQAPGKGLEWVSYISSGSSTVYFADTLKGRFTISRDNAKNSLYLQMNSLRAEDTAVYYCTRGTWYFDVWGRGTLVTVSS
VL: DIQMTQSPSSLSASVGDRVTITCRTSENIHSYLAWYQQKPGKSPQLLVYNAKTLADGVPSRFSGSGSGTDYTLTISSLQPEDFGTFYCQHFWTTSRTFGGGTKVEIK
- binding result [1]: no binding
- binding result [2]: no binding
- binding result [3]: no binding
- EC50 (read off the curve) [4]: ~0.2 nM
- EC50 (read off the curve) [5]: ~0.3 nM
- EC50 (read off the curve) [6]: ~0.3 nM
- EC50 (read off the curve) [7]: ~0.3 nM
- EC50 (read off the curve) [8]: ~0.2 nM
- EC50 (read off the curve) [9]: ~0.2 nM
- EC50 (read off the curve) [10]: ~0.2 nM
- EC50 (read off the curve) [11]: ~0.2 nM
- Kd [12]: 0.59 nM
- Kd [13]: 0.14 nM
- Kd [14]: 0.25 nM
- EC50 (read off the curve) [15]: ~0.9 nM

B2: hu1H2-03-LD038 (antibody, V domains shown)
VH: EVQLVESGGGLVQPGGSLRLSCAASGFTFSDYGLHWVRQAPGKGLEWVSYISSGSSTVYFADTLKGRFTISRDNAKNSLYLQMNSLRAEDTAVYYCTRGTWYFDVWGRGTLVTVSS
VL: DIQMTQSPSSLSASVGDRVTITCRTSENIHSYLAWYQQKPGKSPQLLVYNAKTLADGVPSRFSGSGSGTDYTLTISSLQPEDFGTFYCQHFWTTSRTFGGGTKVEIK
modifications: drug-linker LD038 conjugated to the antibody; positions not given
notes: also called hu1H2-03-LALA-LD038; hu1H2-03-LD038 (8)
- binding result [1]: no binding
- binding result [2]: no binding
- binding result [3]: no binding
- EC50 (read off the curve) [4]: ~0.3 nM
- EC50 (read off the curve) [6]: ~0.4 nM
- EC50 (read off the curve) [8]: ~0.2 nM
- EC50 (read off the curve) [9]: ~0.3 nM
- EC50 (read off the curve) [10]: ~0.2 nM
- EC50 (read off the curve) [11]: ~0.2 nM
- Kd [12]: 0.61 nM
- Kd [13]: 0.08 nM
- Kd [14]: 0.21 nM
- EC50 (read off the curve) [15]: ~1 nM
